# B1: Strep-tagged full length heme oxygenase-2 (S-HO-2) (enzyme, human, UniProt P30519 1-316, looked up)
# chain: MSAEVETSEGVDESEKKNSGALEKENQMRMADLSELLKEGTKEAHDRAENTQFVKDFLKGNIKKELFKLATTALYFTYSALEEEMERNKDHPAFAPLYFPMELHRKEALTKDMEYFFGENWEEQVQCPKAAQKYVERIHYIGQNEPELLVAHAYTRYMGDLSGGQVLKKVAQRALKLPSTGEGTQFYLFENVDNAQQFKQLYRARMNALDLNMKTKERIVEEANKAFEYNMQIFNELDQAGSTLARETLEDGFPVHDGKGDMRKCPFYAAEQDKGALEGSSCPFRTAMAVLRKPSLQFILAAGVALAAGLLAWYYM
# notes: human heme oxygenase 2 (HO-2), cloned from human placenta cDNA, full length; also called full length HO-2; source: Sf9, recombinant baculovirus; not shown: Strep-tag II, N-terminal, kept
# B2: Strep-tagged full length heme oxygenase-1 (S-HO-1) (enzyme, human, UniProt P09601 1-288, looked up)
# chain: MERPQPDSMPQDLSEALKEATKEVHTQAENAEFMRNFQKGQVTRDGFKLVMASLYHIYVALEEEIERNKESPVFAPVYFPEELHRKAALEQDLAFWYGPRWQEVIPYTPAMQRYVKRLHEVGRTEPELLVAHAYTRYLGDLSGGQVLKKIAQKALDLPSSGEGLAFFTFPNIASATKFKQLYRSRMNSLEMTPAVRQRVIEEAKTAFLLNIQLFEELQELLTHDTKDQSPSRAPGLRQRASNKVQDSAPVETPRGKPPLNTRSQAPLLRWVLTLSFLVATVAVGLYAM
# notes: human heme oxygenase 1 (HO-1), cloned from human placenta cDNA, full length; also called full length HO-1; source: Sf9, recombinant baculovirus; not shown: Strep-tag II, N-terminal, kept
# Target: the molecule itself
# Experiment: SEC; 150 µg purified S-HO variant (expressed alone, or full length S-HO co-expressed and co-purified with CPR) on Superdex 200 10/300 GL; 50 mM TEA-HCl, 250 mM NaCl, pH 8.0; peaks blotted with HO antibodies
row,Protein,binding result
1,B1,binds
2,B2,binds

# — PMC3335857, “Heme Oxygenase Isoforms Differ in Their Subcellular Trafficking during Hypoxia and Are Differentially Modulated by Cytochrome P450 Reductase” (PLoS ONE, 2012)
